Assay results taken from patent publication US11123413B2, “Carbapenemases for use with antibiotics for the protection of the intestinal microbiome” (priority 2015, dated 2021).
“And” between values parts separate entries of the source, which are not always exact repeats. Identical values can stand only once.

Assays:
[1] = P2A stability in human chyme (CENTA); format: in vitro ADME
Experimental: The stability of purified P2A when incubated in human chyme at 37° C. was evaluated by assessing aliquots withdrawn from incubated samples at 0, 0.5, 1, 2, 3, 4, 5, and 6 hours for beta-lactamase activity using a CENTA beta-lactamase substrate. Five different chyme specimens were used for evaluation of stability. The mixed chyme sample contained equal volumes of each of the five chime specimens mixed together. Chyme samples were characterized for pH, liquid content, and protease activity (Table 20).

[2] = Oral P2A and intravenous meropenem in jejunal-fistulated dogs; format: in vivo, laboratory beagles
Experimental: The ability of P2A to degrade meropenem in the dog intestinal tract was evaluated using laboratory beagles that had permanent jejunal fistulas. The fistulas allowed the repeated collection of jejunal chyme specimens from these animals. Dogs were treated with peroral P2A (1 mg/kg) in a liquid formulation (PBS buffer), and/or intravenous meropenem (30 mg/kg). Serum samples were collected and serum meropenem levels quantified. Jejunal chyme samples were collected and meropenem and P2A levels were quantified. Meropenem levels in serum and chyme were measured using a plate diffusion method using meropenem susceptible Micrococcus luteus TS504 as the test strain. P2A activity levels in chyme were determined spectrophotometrically using meropenem as a substrate. Meropenem hydrolysis was monitored at a wavelength of 297 nm.

[3] = P2A enteric-coated pellets and intravenous cefotaxime in jejunal-fistulated dogs; format: in vivo, laboratory beagles; conditions: enteric-coated pellets, 0.5 mg/kg or 0.25 mg/kg P2A, intravenous cefotaxime 120 mg/kg
Experimental: An enteric-coated pellet formulation of P2A was produced using methods similar to that used successfully for the production of the P1A enteric-coated pellets (e.g. sucrose core particles, pH-dependent polymer Eudragit L 30 D-55 coating, see Tarkkanen, Antimicrobial Agents and Chemotherapy, June 2009, p. 2455-2462, the entire contents of which are hereby incorporated by reference).
The ability of P2A to degrade cefotaxime in the dog intestinal tract was evaluated using laboratory beagles that had permanent jejunal fistulas. The fistulas allowed the repeated collection of jejunal chyme specimens from these animals. Dogs were treated with peroral P2A enteric-coated pellets at two doses, 0.5 mg/kg or 0.25 mg/kg of P2A content and/or intravenous cefotaxime (120 mg/kg). The dosing was performed twice. Animals were fed 20 minutes before P2A was delivered orally. Each animal received 3-5 P2A capsules, dependent on the P2A dose and the body weight. Cefotaxime was delivered intravenously 10 minutes after P2A administration. […] Cefotaxime levels in chyme were measured using a plate diffusion method using cefotaxime susceptible Micrococcus luteus TS504 as the test strain. P2A activity levels in chyme were determined spectrophotometrically using meropenem as a substrate. Meropenem hydrolysis was monitored at a wavelength of 297 nm.

[4] = Oral P2A and intravenous ceftriaxone in jejunal-fistulated dogs; format: in vivo, laboratory beagles; conditions: peroral P2A 2.5 mg/kg, intravenous ceftriaxone 30 mg/kg, omeprazole
Experimental: The ability of P2A to degrade ceftriaxone in the dog intestinal tract was evaluated using laboratory beagles that had permanent jejunal fistulas. The fistulas allowed the repeated collection of jejunal chyme specimens from these animals. Dogs were treated with peroral P2A (2.5 mg/kg) in a liquid formulation (PBS buffer), and/or intravenous ceftriaxone (30 mg/kg). A single dose of omeprazole (10 mg) was delivered orally to each dog prior to treatment with ceftriaxone and/or P2A to inhibit the HCl activity in the stomach to potentially reduce P2A degradation. Serum samples were collected and serum ceftriaxone levels quantified. Jejunal chyme samples were collected and ceftriaxone and P2A levels were quantified. Ceftriaxone levels in serum and chyme were measured using a plate diffusion method using ceftriaxone susceptible Micrococcus luteus TS504 as the test strain. P2A activity levels in chyme were determined spectrophotometrically using meropenem as a substrate. Meropenem hydrolysis was monitored at a wavelength of 297 nm.

[5] = Proteolytic cleavage of NDM in 2% human chyme or porcine pancreatic elastase, N-terminal sequencing of fragments; format: in vitro ADME; conditions: 500 ug/mL in 2% mixed human chyme
Experimental: The loss of NDM activity upon incubation with human chyme was due to the proteolytic cleavage of NDM by endogenous proteases present in human chyme. To map the cleavage sites within the NDM protein, NDM ([…]) was incubated with 2% mixed human chyme (human chyme diluted with incubation buffer, 20 mM Hepes pH 6.2; 150 mM NaCl, 100 uM ZnSO4) for times ranging from 0 to 180 minutes. Twenty microliters of each sample (1 ug) was removed and transferred to 20 μL of 2× denaturing sample buffer for a final concentration of 25 ng/μL. The samples were boiled and 10 μL (250 ng of NDM) was subjected to analysis by SDS-PAGE. NDM was rapidly degraded, in 0-15 minutes, into 5 distinct cleavage fragments (FIG. 26). […]
To map the proteolytic cleavage sites of the NDM fragments, NDM was incubated with 2% mixed human chyme as described for 0 or 15 minutes. […] The NDM digestions were analyzed by SDS/PAGE, the gel equilibrated in 1× Tris-Glycine transfer buffer and the proteins were transferred to an equilibrated Sequi-Blot PVDF membrane by wet transfer in Tris-glycine buffer. […] The isolated fragments were analyzed by N-terminal sequencing of the first 5 amino acids using a Perkin Elmer Applied Biosystems Model 494 Procise protein/peptide sequencer with an on-line Perkin Elmer Applied Biosystems Model 140C PTH Amino Acid Analyzer. […]

[6] = peak level in dog jejunum, meropenem 30 mg/kg IV + P2A 1 mg/kg PO, individual dogs
[7] = peroral P2A 1 mg/kg, intravenous meropenem 30 mg/kg

B1: P2A: broad spectrum carbapenemase, class B metallo-enzyme requiring zinc, SEQ ID NO: 37; P2A-21 = product of strain SYT-PP0602-21 (protein)
chain: ETGTISISQLNKNVWVHTELGYFNGEAVPSNGLVLNTSKGLVLVDSSWDNKLTKELIEMVEKKFQKRVTDVIITHAHADRIGGITALKERGIKAHSTALTAELAKNSGYEEPLGDLQTITSLKFGNTKVETFYPGKGHTEDNIVVWLPQYQILAGGCLVKSAEAKDLGNVADAYVNEWSTSIENVLKRYGNINSVVPGHGEVGDKGLLLHTLDLLK
- activity in chyme 3 sample ([1]; chyme 3 (pH 5.6)): rapidly declined
- stability in pH-adjusted chyme 3 ([1]; chyme 3 adjusted to pH 7.0 using NaOH): improved
- beta-lactamase activity in individual chyme samples ([1]; five individual human chyme samples, 100 uM ZnSO4): relatively stable in four of five individual chyme samples
- beta-lactamase activity in mixed chyme without additional zinc ([1]; mixed human chyme, no added zinc, 37° C.): declined more rapidly
- jejunal P2A concentration at which meropenem was not detected ([2]; intestinal samples, dogs): at least 0.5 U/g
- Meropenem [2, 6]: 0 ug/ml (2×) and 2.0 ug/ml
- P2A (U/g) [2, 6]: 0.5 U/g and 0.2 U/g and 80 U/g
- effect on serum levels of meropenem [2, 7]: does not reduce serum levels of meropenem
- meropenem in jejunal chyme [2, 7]: degraded meropenem
- cefotaxime degradation in the intestinal tract [3]: degraded cefotaxime
- overall cefotaxime levels in chyme [3]: lower overall levels of cefotaxime in their chyme
- ceftriaxone in jejunal chyme [4]: degraded ceftriaxone
- effect on serum levels of ceftriaxone [4]: does not reduce serum levels of ceftriaxone

B2: NDM: New Delhi metallo-β-lactamase NDM-1; NDM-68 = product of strain STY-NP1602-68 (STII Δ35, N-terminal GQQMETG) (protein)
chain: GQQMETGDQRFGDLVFRQLAPNVWQHTSYLDMPGFGAVASNGLIVRDGGRVLVVDTAWTDDQTAQILNWIKQEINLPVALAVVTHAHQDKMGGMDALHAAGIATYANALSNQLAPQEGMVAAQHSLTFAANGWVEPATAPNFGPLKVFYPGPGHTSDNITVGIDGTDIAFGGCLIKDSKAKSLGNLGDADTEHYAASARAFGAAFPKASMIVMSHSAPDSRAAITHTARMADKLR
- time at which protein and fragments were undetectable [5]: 60 to 90 min
- time of degradation into 5 distinct cleavage fragments [5]: 0 to 15 min
